The nanobody polyreactivity screen of Harvey et al. (2022)

Assay: yeast display, Sf9 membrane polyspecificity reagent, FACS + sequencing; frameworks hold sequencing errors
How it was run: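 Sorting gates, low and high (top ~1%), were placed on anti-HA fluorescence to track expression and on streptavidin fluorescence to track reagent binding. A clone's polyreactivity label is taken from the gate it came out of. The reagent was 10% biotinylated, detergent-solubilized Sf9 membrane, applied for 1 hour at 4 °C to galactose-induced yeast display cells.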

| Sequence | polyreactivity (PSR sort gate) |
| --- | --- |
| QVQLVESGGGLVQAGGSLRLSCAASGRTFAKYAMGWYRQAPGKERELVASISGRGTNTYYADSVKGRFTISRDNAKNTVYLQMNSLKPEDTAVYYCAATYVYPYRDSHYYYWGQGTQVTVSS | high polyreactivity |
| QVQLVESGGGLVQAGGSLRLSCAASGRTFAKYGMGWYIQAPGKERELVAAIDYSGGSTYYADSVKGRFTISRDNAKNTVYLQMNSLKPEDTAVYYCAADYFWLYYSEYGYWGQGTQVTVSS | low polyreactivity |
| QVQLVESGGGLVQAGGSLRLSCAASGRTFALNAMGWYRQAPGKERELVAAISWSSGRTYYADSVKGRFTISRDNAKNTVYLQMNSLKPEDTAVYYCAALVAHKGDYWGQGTQVTVSS | high polyreactivity |
| QVQLVESGGGLVQAGGSLRLSCAASGRTFALYAMGWYRHAPGKERELVASISWRGGSTYYADSVKGRFTISRDNAKNTVYLQMNSLKPEDTAVYYCAADTWSYGPLNYRLEYWGQGTQVTVSS | low polyreactivity |
| QVQLVESGGGLVQAGGSLRLSCAASGRTFALYAMGWYRQAPGKERELVATITFIGDSTYYADSVKGRFTISRDNAKNTVYLQMNCLKPVDTAVYYCNATYGPYYPGIVTYIWFDHWGQGSQVTVSS | low polyreactivity |
| QVQLVESGGGLVQAGGSLRLSCAASGRTFANNAMGWYRQAPGKERELVARISNSGSTNYADSVKGRFTISRDNAKNTVYLQMNSLKPEDTAVYYCAARIVRLYSRYDYWGQGTQVTVSS | low polyreactivity |
| QVQLVESGGGLVQAGGSLRLSCAASGRTFANYAMGWYRQAPGKERELVAAITSGGRTYYADSVKGRFTISRDNAKNTVYLQMNSLKPEDTAVYYCAADYTYDYQNDYWGQGTQVTVSS | high polyreactivity |
| QVQLVESGGGLVQAGGSLRLSCAASGRTFAPNAMRWSRQAPGKERELVARITWSGTDTYYADSVKGRFTISRDNAKNTVYLQMNSLKPEDTAVYYCAADARYSRRYYYWGQGTQVTVSS | low polyreactivity |
| QVQLVESGGGLVQAGGSLRLSCAASGRTFAPNTMGWYRQAPGKERELVATISSGGSTNYADSVKGRFTISRDNAKNTVYLQMNSLKPEDTAVYYCAARYRIVYRSHWGFTSYDYWGQGTQVTVSS | low polyreactivity |
| QVQLVESGGGLVQAGGSLRLSCAASGRTFAPYAMGWYRQAPGKERELVAAITSGGSTYYADSVKGRFTISRDNAKNTVYLQMNSLKPEDTAVYYCAAKFVGTTVSEYGYWGQGTEVTVSS | low polyreactivity |
| QVQLVESGGGLVQAGGSLRLSCAASGRTFAPYAMGWYRQARGQERELVATITRTGRTNYADSVKGRFTISRDNAKNTVYLQMNSLKPEDTAVYYCAAYTYYGFYYWGQGTQVTVSS | high polyreactivity |
| QVQLVESGGGLVQAGGSLRLSCAASGRTFAPYAMVWYRQAPGKERELVAAITYSGGSTYYADSVKGRFTISRDNAKNTVYLQMNSLIPADTAVYYCAADSDYDPYDYWGQGTQVTVSS | low polyreactivity |
| QVQLVESGGGLVQAGGSLRLSCAASGRTFARHVMGWYCQAPGKVRELVAGITTSGGSTYYADSVKGRFTISRDNPKNTGYFQMNSLKPEDTAVYYCATDRQRYYRTVRSPIFNYWGQGTQVTVSS | high polyreactivity |
| QVQLVESGGGLVQAGGSLRLSCAASGRTFARNVMGSYRQAPGKERELVAAIRGSGGSTYYADSVKGRFTISRDNSKNTVYLQMNSLKPEDTAVYYCAADSSYTKRYSPTKLHFEYWGQGTQVTVSS | high polyreactivity |
| QVQLVESGGGLVQAGGSLRLSCAASGRTFARYAIGWSRQAPGKERELVAAITRRGGSTYYADSVKGRFTLSRDNAKNTVYLQMNSLKPEDTAVYYCAAHYPNFGIGAYEYWGQGTQVTVSS | high polyreactivity |
| QVQLVESGGGLVQAGGSLRLSCAASGRTFARYAMGWYRQAPGKERELVASIRRGTSTNYADSVKGRFTISRDNAKNTVYLQMNSLKPEDTAVYYCAARVGTEGYHGDYWGQGTQVTVSS | high polyreactivity |
| QVQLVESGGGLVQAGGSLRLSCAASGRTFARYTMGWYRQAPGKERELVAAITSGGGSTYYADSVKGRFTISRDNAKNTVYLQMNSLKPEDTAVYYCNARRYYYITGRYGYWGQGTQVTVSS | high polyreactivity |
| QVQLVESGGGLVQAGGSLRLSCAASGRTFASNDMGWYRHAPGNERELVAGITGSGGSTYYADSVKGRFTISRDNAKNTVYLQMNSLKPEDTAVYYCAADRSRGYGYDYWGQGTQVTVSS | low polyreactivity |
| QVQLVESGGGLVQAGGSLRLSCAASGRTFASYAMGWYRKAPGKETELVATISSGDSTYADSVKGRFTISRDNAKITVYLQRNRLKPEDTAVYYCAAASDLPGTCGYDYWGQGTQVTVSS | low polyreactivity |
| QVQLVESGGGLVQAGGSLRLSCAASGRTFASYTMGWYRQAPGKERELVAAITRGGSTNYADSVKGRFTISRDNAKNTVYLQMNSLKPEDTAVYYCAARFSRSFGYNYWGQGTQVTVSS | high polyreactivity |
| QVQLVESGGGLVQAGGSLRLSCAASGRTFASYTMGWYRQPPGKESELVAAINARGGNTYYADSVKGRFTISRDNAKNTVYLQMNSLKPEDTAVYYCAARQKRFKVAAGYDYWGQGTQVTVSS | high polyreactivity |
| QVQLVESGGGLVQAGGSLRLSCAASGRTFAWYAMGWYRQAPGKERELVAAISSSGGTTYYADSVKGRFTISRDNAKNTVYLQMNSLKPEDTAVYYCAARPGFWEYWGWWYDRYEYWGQGTQVTVSS | low polyreactivity |

| Sequence | polyreactivity (PSR sort gate) |
| --- | --- |
| QVQLVESGGGLVQAGGSLRLSCAASGRTFAYNAMGWYRQAAGKVRELVASITSGGSTNYADSVKGRFTISRDNAKNTVYLQMNSLKPEDTAVYYFIKDGKYHRVLYEYWGQGTQVTVSS | low polyreactivity |
| QVQLVESGGGLVQAGGSLRLSCAASGRTFAYNAMGWYRQAPGKERELVAGITGGNSRTYYADSVKGRFTISRDNAKNTVYLQMNSLKPEDTAVYYCARRFYKGTSKTNLFDYWGQGTQVTVSS | high polyreactivity |
| QVQLVESGGGLVQAGGSLRLSCAASGRTFAYNAMGWYRQAPGKERELVASITSGGSTNYSDSVKGRFTISRDNAKNTVYLQMNSLKPEDTAVYYCNKDGKYHRVLYDYCGQGTQVTVSS | low polyreactivity |
| QVQLVESGGGLVQAGGSLRLSCAASGRTFAYYAMGWYRQAPGKERELVAAIRRSGRTNYADSVKGRFTISRDNAKNTVYLQMNSLKQEDTAVYYCAADYWQGDLRYDYWGQGTQVTVSS | low polyreactivity |
| QVQLVESGGGLVQAGGSLRLSCAASGRTFAYYAMGWYRQAPGKERELVAAISSSGGITYYADSVKGRFTISRDNAKNTVYLQMNSLKPEDTAVYYCATPRARTRLRYYWGQGTQVTVSS | high polyreactivity |
| QVQLVESGGGLVQAGGSLRLSCAASGRTFAYYAMGWYRQAPGKERELVAAITLRSGSTYYADSVKGRFTISRDNAKNTVYLQMNSLKPEDTAVYYCATDSLGVDRPNYNYWGQGTQVTVSS | low polyreactivity |
| QVQLVESGGGLVQAGGSLRLSCAASGRTFAYYAMGWYRQAPGKERELVAAITTSGTRTYYADSVKGRFTISRDTAKNTVYLQMNSLKPEDTAVYSCAARYRYQYEFDYWGQGTQVTVSS | high polyreactivity |
| QVQLVESGGGLVQAGGSLRLSCAASGRTFAYYAMGWYRQAPGKERELVATISWTTGSTYYADSVKGRFTISRDNAKNTVYLQMNSLKPEDTAVYYCNKRYNNPYWYPGRYPYDYWGQGTQVTVSS | high polyreactivity |
| QVQLVESGGGLVQAGGSLRLSCAASGRTFCIYAMGWYIQAPGKEREFVAAISSSGGGTYYADSVKGRFTISRDNAKNTVYLQMNSLKPEDTAVYYCAADDGYSSNEYDYWGQGTQVTVSS | low polyreactivity |
| QVQLVESGGGLVQAGGSLRLSCAASGRTFCLNAMGWYRQAPGKERELVAAISKSDDSTYYADSVKGRFTISRDNAKNTVYLQMNSLKPEDTAVYYCNADYYGWWYDTDYIGGYDYDYWGQGTQVTVSS | low polyreactivity |
| QVQLVESGGGLVQAGGSLRLSCAASGRTFDGNAMGWYRQAPGKERELVAAISKRGGTTYYADSVKGRFTISRDKAKNTVYLQMTSLKPEDTAVYYCAAPYNTYSYSEGEYWGQGTQVTVST | low polyreactivity |
| QVQLVESGGGLVQAGGSLRLSCAASGRTFDGNTMGWYRQAPGKERELVAAITKRGGSTYYADSVKGRFTISRDNAKNTVYLQMNSLKPEDTAVYYCNAVWRNWYARVDEYDYWGQGTQVTVSS | high polyreactivity |
| QVQLVESGGGLVQAGGSLRLSCAASGRTFDGYAMGWSRQAPGKERELVAAINRSGGNTYYADSVKGRFTISRDNAKNTVYLQMNSLNPVDTAVYYCAADGWTSIGVPDYQHDYWGQGTQVTVSS | high polyreactivity |
| QVQLVESGGGLVQAGGSLRLSCAASGRTFDGYAMGWYRQAPGKERELVASINGGGSTNYADSVKGRFTISRDNAKNTVYLQMNSLKPEDTAVYYCAAESKGTWHYLYTSPHYYWGQGTQVTVSS | low polyreactivity |
| QVQLVESGGGLVQAGGSLRLSCAASGRTFDGYSMGWYRQAPGKEREFVASINGGGSTNYADSVNGRFTISRDNAKNTVYLQMNSLKPEDTAVYYCAAESKGTWLYLYNSPHYYWGQGTQVTVSS | low polyreactivity |
| QVQLVESGGGLVQAGGSLRLSCAASGRTFDGYTMGWSRQAPGKERELVAAISRTGSTNYADSVKGRFTISRDNAKNTVYLQMNSLEPEDTAVYYCNAARRYFRYSRKTSAWYYYWGQGTQVTVSS | high polyreactivity |
| QVQLVESGGGLVQAGGSLRLSCAASGRTFDIYAMGWYRQAPGKERELVAAISSGGSTYYADSVKGRFTISRDNAKNTVYLQINSLKPEDTAVYYCAVRWYDQVSRRGIGYYWGQGSQVTVSS | low polyreactivity |
| QVQLVESGGGLVQAGGSLRLSCAASGRTFDLYAMGWDRQAPGKERELVAAITKGGGSTYYADSVKGRFTISRDNAKNTVYLQMNSLKPEDSAVYYCAARKYKRIYRISSGIGYYWGHGTQVTVSS | high polyreactivity |
| QVQLVESGGGLVQAGGSLRLSCAASGRTFDNNAMGWYRQAPGKEREFVAAITTGVGSTYADSVKGRFTISRDNAKNTVYLQMNSLKPEDTAVYYCAADSYWLFDAYDYWGQGTQVTVSS | low polyreactivity |
| QVQLVESGGGLVQAGGSLRLSCAASGRTFDPNAMGWYRQAPGKERELVAAISGRGTSTYYADSVKGRFTISRDDAKNTVYLQMNSLKPEDTAVYYCAKAGAGESIAKYDYWGQGTQVTVSS | low polyreactivity |
| QVQLVESGGGLVQAGGSLRLSCAASGRTFDPNAMGWYRQAPGKERELVAVITARGGNTSYADSVKGRFTISRDNAKNTVYLQMISLKPEDTAVYYCAAPADDTVHYQNYYWGQGTQVTVSS | low polyreactivity |
